B1: Alpha-parvin (Homo sapiens), Q9NVD7 (parent)
chain: MATSPQKSPSVPKSPTPKSPPSRKKDDSFLGKLGGTLARRKKAKEVSELQEEGMNAINLPLSPIPFELDPEDTMLEENEVRTMVDPNSRSDPKLQELMKVLIDWINDVLVGERIIVKDLAEDLYDGQVLQKLFEKLESEKLNVAEVTQSEIAQKQKLQTVLEKINETLKLPPRSIKWNVDSVHAKSLVAILHLLVALSQYFRAPIRLPDHVSIQVVVVQKREGILQSRQIQEEITGNTEALSGRHERDAFDTLFDHAPDKLNVVKKTLITFVNKHLNKLNLEVTELETQFADGVYLVLLMGLLEGYFVPLHSFFLTPDSFEQKVLNVSFAFELMQDGGLEKPKPRPEDIVNCDLKSTLRVLYNLFTKYRNVE
partner: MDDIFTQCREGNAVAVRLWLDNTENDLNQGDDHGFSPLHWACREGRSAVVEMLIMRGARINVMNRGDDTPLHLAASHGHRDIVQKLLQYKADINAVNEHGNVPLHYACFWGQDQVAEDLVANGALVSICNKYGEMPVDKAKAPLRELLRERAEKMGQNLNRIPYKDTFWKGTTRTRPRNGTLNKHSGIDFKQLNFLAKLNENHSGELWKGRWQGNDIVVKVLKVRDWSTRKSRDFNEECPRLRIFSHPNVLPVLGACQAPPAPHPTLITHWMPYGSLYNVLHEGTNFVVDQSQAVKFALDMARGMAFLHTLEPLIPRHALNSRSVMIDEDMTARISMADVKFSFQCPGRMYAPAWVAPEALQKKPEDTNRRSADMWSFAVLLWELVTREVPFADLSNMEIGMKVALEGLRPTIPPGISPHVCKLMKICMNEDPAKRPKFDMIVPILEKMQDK

Variants of: B1
Settings: with ilk_mouse Ilk

Variant | effect of a mutation on the interaction
F271D | disrupting interaction strength

Source: IntAct's records for PubMed 11331308
